{"source": "paper PMC11535475", "about": "(2024)", "binders": {"B1": {"name": "TCR-28 (TCR)", "alpha TRAV19 TRAJ54 CDR3": "CALSEAYQGAQKLVF", "beta TRBV9 TRBJ2-5 CDR3": "CASSVGGTVQETQYF"}, "B2": {"name": "TCR-34-1 (TCR)", "alpha TRAV14/DV4 TRAJ6 CDR3": "CAMREGSKGSYIPTF", "beta TRBV28 TRBJ2-7 CDR3": "CASRLNPGTVSYEQYF"}, "B3": {"name": "TCR-32 (TCR)", "alpha TRAV3 TRAJ8 CDR3": "CAVRVYTGFQKLVF", "beta TRBV9 TRBJ2-3 CDR3": "CASSSNLQGADTQYF"}, "B4": {"name": "TCR-23-2 (TCR)", "alpha TRAV6 TRAJ21 CDR3": "CALWDFNKFYF", "beta TRBV27 TRBJ2-5 CDR3": "CASSPYSGGQGETQYF"}, "B5": {"name": "TCR-33 (TCR)", "alpha TRAV19 TRAJ15 CDR3": "CALSEAEAGTALIF", "beta TRBV6-2 TRBJ1-2 CDR3": "CASSYGSVYGYTF"}, "B6": {"name": "TCR-18 (TCR)", "alpha TRAV6 TRAJ45 CDR3": "CALDGSGGGADGLTF", "beta TRBV7-8 TRBJ1-3 CDR3": "CASSPGRSGNTIYF"}, "B7": {"name": "TCR-10 (TCR)", "alpha TRAV29/DV5 TRAJ48 CDR3": "CAASDENEKLTF", "beta TRBV6-6 TRBJ2-1 CDR3": "CASKGGGTSGYEQFF"}, "B8": {"name": "TCR-17 (TCR)", "alpha TRAV29/DV5 TRAJ30 CDR3": "CAARTGDDKIIF", "beta TRBV10-3 TRBJ1-5 CDR3": "CAINKQGFNQPQHF"}, "B9": {"name": "TCR-08 (TCR)", "alpha TRAV19 TRAJ33 CDR3": "CALSEAVDSNYQLIW", "beta TRBV7-9 TRBJ1-2 CDR3": "CASSLRQGPNYGYTF"}, "B10": {"name": "TCR-09 (TCR)", "alpha TRAV29/DV5 TRAJ43 CDR3": "CAASPEYNNNDMRF", "beta TRBV18 TRBJ2-3 CDR3": "CASSRTLGTSGNTQYF"}, "B11": {"name": "TCR-37-1 (TCR)", "alpha TRAV5 TRAJ5 CDR3": "CAESDMDMGRRALTF", "beta TRBV7-3 TRBJ2-3 CDR3": "CASSRRASGIGTDTQYF"}, "B12": {"name": "TCR-19 (TCR)", "alpha TRAV29/DV5 TRAJ30 CDR3": "CAAMSMNRDDKIIF", "beta TRBV4-1 TRBJ2-1 CDR3": "CASSRLPGLAGGTVVNEQFF"}, "B13": {"name": "TCR-24 (TCR)", "alpha TRAV29/DV5 TRAJ48 CDR3": "CAASEAGGNEKLTF", "beta TRBV15 TRBJ1-5 CDR3": "CATSREQAGQPQHF"}, "B14": {"name": "TCR-29-1 (TCR)", "alpha TRAV3 TRAJ33 CDR3": "CAVRRLMDSNYQLIW", "beta TRBV7-6 TRBJ2-1 CDR3": "CASSHGTSGSSHEQFF"}, "B15": {"name": "TCR-03 (TCR)", "alpha TRAV38-2/DV8 TRAJ30 CDR3": "CAYRSVPLNRDDKIIF", "beta TRBV19 TRBJ1-5 CDR3": "CASSKSGTGYQPQHF"}, "B16": {"name": "TCR-20 (TCR)", "alpha TRAV13-1 TRAJ47 CDR3": "CAAIQEYGNKLVF", "beta TRBV5-5 TRBJ2-2 CDR3": "CASSPRTLFTGELFF"}, "B17": {"name": "TCR-38-1 (TCR)", "alpha TRAV8-6 TRAJ29 CDR3": "CAVTTDSGNTPLVF", "beta TRBV11-2 TRBJ2-1 CDR3": "CASSPAFGEQFF"}, "B18": {"name": "TCR-22 (TCR)", "alpha TRAV19 TRAJ49 CDR3": "CALSEALNTGNQFYF", "beta TRBV3-1 TRBJ1-6 CDR3": "CASSQVAYSPLHF"}}, "data": [{"target": "T1, SARS-CoV-2 N protein peptide on HLA-A*11:01 (human)", "T1 peptide": "ATEGALNTPK", "assay": "activation reporter or marker", "values": [{"binder": "B1", "binding result": "recognises"}, {"binder": "B2", "binding result": "recognises"}, {"binder": "B3", "binding result": "recognises"}]}, {"target": "T2, SARS-CoV-2 N protein peptide on HLA-A*11:01 (human)", "T2 peptide": "QQQQGQTVTK", "assay": "activation reporter or marker", "values": [{"binder": "B4", "binding result": "recognises"}]}, {"target": "SARS-CoV-2 N protein peptide on HLA-A*11:01 (human)", "assay": "activation reporter or marker", "values": [{"binder": "B5", "binding result": "recognises"}, {"binder": "B6", "binding result": "recognises"}, {"binder": "B7", "binding result": "recognises"}, {"binder": "B8", "binding result": "recognises"}, {"binder": "B9", "binding result": "recognises"}, {"binder": "B10", "binding result": "recognises"}, {"binder": "B11", "binding result": "recognises"}, {"binder": "B12", "binding result": "recognises"}, {"binder": "B13", "binding result": "recognises"}, {"binder": "B14", "binding result": "recognises"}, {"binder": "B15", "binding result": "recognises"}, {"binder": "B16", "binding result": "recognises"}, {"binder": "B17", "binding result": "recognises"}, {"binder": "B18", "binding result": "recognises"}]}]}
